The text below walks through data of article PMC5829564 (Nucleic Acids Research, 2018).

The data set “SEC-RALS” deals with the molecule itself. The data set can be described thus: SEC-RALS.
The target in the next data set is T1, Grhl1 DBD (Homo sapiens, UniProt Q9NZI5 248-485).
T1 sequence: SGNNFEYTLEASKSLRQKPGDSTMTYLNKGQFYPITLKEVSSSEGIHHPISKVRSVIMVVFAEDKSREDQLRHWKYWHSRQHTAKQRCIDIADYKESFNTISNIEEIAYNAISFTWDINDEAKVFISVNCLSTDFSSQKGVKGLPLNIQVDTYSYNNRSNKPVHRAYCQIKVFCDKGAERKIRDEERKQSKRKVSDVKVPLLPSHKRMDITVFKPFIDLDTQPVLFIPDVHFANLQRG
The data set can be described thus: ITC.

B1: ΔN_Grhl1 (N-terminal truncation construct of human Grhl1, aa 248–618; DBD plus dimerization domain) (domain or fragment, UniProt Q9NZI5 248-618, looked up)
chain: SGNNFEYTLEASKSLRQKPGDSTMTYLNKGQFYPITLKEVSSSEGIHHPISKVRSVIMVVFAEDKSREDQLRHWKYWHSRQHTAKQRCIDIADYKESFNTISNIEEIAYNAISFTWDINDEAKVFISVNCLSTDFSSQKGVKGLPLNIQVDTYSYNNRSNKPVHRAYCQIKVFCDKGAERKIRDEERKQSKRKVSDVKVPLLPSHKRMDITVFKPFIDLDTQPVLFIPDVHFANLQRGTHVLPIASEELEGEGSVLKRGPYGTEDDFAVPPSTKLARIEEPKRVLLYVRKESEEVFDALMLKTPSLKGLMEAISDKYDVPHDKIGKIFKKCKKGILVNMDDNIVKHYSNEDTFQLQIEEAGGSYKLTLTEI
For B1, the stoichiometry N (as a rule, the number of molecules, sites or subunits per partner or assembly) in the data set “SEC-RALS” worked out at 2.

B2: Mut_12mer (dsDNA)
DNA 1: AAAATCGATTTT
DNA 2: AAAATCGATTTT
For the molecule B2, the binding result with Grhl1 DBD was “no binding”.
